Measured values published in US9745384B2, “Peptides useful for modulating histone demethylase function” (The Brigham and Women's Hospital, Inc., priority 2012, dated 2017).

Molecular target: T1, LSD2 (Homo sapiens, UniProt Q8NB78)
T1 sequence (Q8NB78 1-822): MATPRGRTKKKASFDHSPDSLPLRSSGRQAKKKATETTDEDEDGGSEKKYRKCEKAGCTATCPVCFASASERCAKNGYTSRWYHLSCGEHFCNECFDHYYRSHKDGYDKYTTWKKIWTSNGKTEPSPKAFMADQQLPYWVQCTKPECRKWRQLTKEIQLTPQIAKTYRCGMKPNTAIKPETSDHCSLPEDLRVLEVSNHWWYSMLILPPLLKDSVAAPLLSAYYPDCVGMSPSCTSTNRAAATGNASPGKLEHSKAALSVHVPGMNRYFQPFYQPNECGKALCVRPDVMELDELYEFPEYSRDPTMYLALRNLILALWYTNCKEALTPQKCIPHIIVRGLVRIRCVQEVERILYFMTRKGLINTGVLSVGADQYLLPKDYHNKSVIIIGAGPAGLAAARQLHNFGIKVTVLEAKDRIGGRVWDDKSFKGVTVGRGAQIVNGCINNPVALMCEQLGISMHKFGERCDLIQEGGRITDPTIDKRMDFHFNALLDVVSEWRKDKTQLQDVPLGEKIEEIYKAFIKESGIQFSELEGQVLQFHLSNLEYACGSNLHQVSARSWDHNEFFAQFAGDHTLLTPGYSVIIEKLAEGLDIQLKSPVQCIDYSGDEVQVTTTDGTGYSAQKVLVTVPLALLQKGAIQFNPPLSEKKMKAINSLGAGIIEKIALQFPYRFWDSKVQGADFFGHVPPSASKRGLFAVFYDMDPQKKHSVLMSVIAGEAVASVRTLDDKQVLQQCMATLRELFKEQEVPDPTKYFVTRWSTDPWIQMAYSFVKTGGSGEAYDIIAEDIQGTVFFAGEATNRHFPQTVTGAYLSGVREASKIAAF
Assay: H3K4me2 peptide demethylation assay (MALDI-TOF)
Type: biochemical
Parameters: 0.15 μM or 1.2 μM purified LSD2 (residues 51-822); His6 (cleaved yes); made in house; host or cells: Sf9 insect cells (baculovirus)
Conditions: longer H3K4me2 peptide residues 1-44
Description: FIGS. 12A-12F depict analysis of LSD2 demethylation activity and mutational analysis. […] Demethylation products were analyzed by MALDI-TOF mass spectrometry. 0.15 μM LSD2 can efficiently demethylate the longer H3K4me2 peptide (1-21), but has no detectable activity on the shorter histone peptide (1-15), demethylation of which requires high concentration (1.2 μM) of LSD2. […] It indicates the importance of histone residue 16-21 to LSD2 enzymatic activity and NPAC cofactor activity, supporting our model that NPAC assists enzyme-substrate interactions by creating a new binding site for H3 L20 in the LSD2-NPAC complex. FIG. 12C depicts LSD2 demethylation and NPAC cofactor activity on longer H3K4me2 peptide (1-44). […] The cofactor activity of wild-type NPAC was readily detected under the same conditions. […] It is noted that no obvious cofactor effect of F217A peptide or linker regions was detected in nucleosome and peptide demethylation assays (FIG. 6E and data not shown). […]
Histone peptides are purchased from Millipore, or custom synthesized. The purity of all peptides are >95% as determined by HPLC and mass spectrometry. […] The products were desalted through a C18 Ziptip (Millipore) and analyzed on a MALDI-TOF micro MX mass spectrometer (ABI 4700, Applied Biosystems). […]

B1: NPAC: full-length human NPAC/GLYR1 (protein ID: Q49A26), recombinant, LSD2 cofactor (protein)
chain: MAAVSLRLGDLVWGKLGRYPPWPGKIVNPPKDLKKPRGKKCFFVKFFGTEDHAWIKVEQLKPYHAHKEEMIKINKGKRFQQAVDAVEEFLRRAKGKDQTSSHNSSDDKNRRNSSEERSRPNSGDEKRKLSLSEGKVKKNMGEGKKRVSSGSSERGSKSPLKRAQEQSPRKRGRPPKDEKDLTIPESSTVKGMMAGPMAAFKWQPTASEPVKDADPHFHHFLLSQTEKPAVCYQAITKKLKICEEETGSTSIQAADSTAVNGSITPTDKKIGFLGLGLMGSGIVSNLLKMGHTVTVWNRTAEKCDLFIQEGARLGRTPAEVVSTCDITFACVSDPKAAKDLVLGPSGVLQGIRPGKCYVDMSTVDADTVTELAQVIVSRGGRFLEAPVSGNQQLSNDGMLVILAAGDRGLYEDCSSCFQAMGKTSFFLGEVGNAAKMMLIVNMVQGSFMATIAEGLTLAHVTGQSQQTLLDILNQGQLASIFLDQKCQNILQGNFKPDFYLKYIQKDLRLAIALGDAVNHPTPMAAAANEVYKRAKALDQSDNDMSAVYRAYIH
Cofactor activity: stimulation of LSD2 demethylation of H3K4me2 peptide: can robustly stimulate LSD2 demethylation of the longer peptide (1-44)
